Results reported in PMC7721913.

Target: HA-SFPQ (human) (UniProt P23246)
Assay: co-IP

Sequence of Myc-KLC1 ΔTail (domain or fragment) (O88447 whole entry, stated change not applied, the tested form may be a part): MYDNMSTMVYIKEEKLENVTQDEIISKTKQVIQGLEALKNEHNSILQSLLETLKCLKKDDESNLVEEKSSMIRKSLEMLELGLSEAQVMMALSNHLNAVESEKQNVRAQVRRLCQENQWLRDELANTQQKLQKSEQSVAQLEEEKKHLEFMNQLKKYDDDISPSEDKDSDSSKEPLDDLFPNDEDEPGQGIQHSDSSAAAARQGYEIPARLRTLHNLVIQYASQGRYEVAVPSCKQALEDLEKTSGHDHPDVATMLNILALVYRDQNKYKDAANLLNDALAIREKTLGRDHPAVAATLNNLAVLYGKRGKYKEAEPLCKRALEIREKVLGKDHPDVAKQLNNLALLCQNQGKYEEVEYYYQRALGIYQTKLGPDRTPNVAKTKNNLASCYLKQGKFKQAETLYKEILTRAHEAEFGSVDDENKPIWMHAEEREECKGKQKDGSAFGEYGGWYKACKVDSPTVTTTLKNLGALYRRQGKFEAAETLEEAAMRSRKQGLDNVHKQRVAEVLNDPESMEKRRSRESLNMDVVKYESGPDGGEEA
Sequence of HA-SFPQ (human) (P23246 whole entry): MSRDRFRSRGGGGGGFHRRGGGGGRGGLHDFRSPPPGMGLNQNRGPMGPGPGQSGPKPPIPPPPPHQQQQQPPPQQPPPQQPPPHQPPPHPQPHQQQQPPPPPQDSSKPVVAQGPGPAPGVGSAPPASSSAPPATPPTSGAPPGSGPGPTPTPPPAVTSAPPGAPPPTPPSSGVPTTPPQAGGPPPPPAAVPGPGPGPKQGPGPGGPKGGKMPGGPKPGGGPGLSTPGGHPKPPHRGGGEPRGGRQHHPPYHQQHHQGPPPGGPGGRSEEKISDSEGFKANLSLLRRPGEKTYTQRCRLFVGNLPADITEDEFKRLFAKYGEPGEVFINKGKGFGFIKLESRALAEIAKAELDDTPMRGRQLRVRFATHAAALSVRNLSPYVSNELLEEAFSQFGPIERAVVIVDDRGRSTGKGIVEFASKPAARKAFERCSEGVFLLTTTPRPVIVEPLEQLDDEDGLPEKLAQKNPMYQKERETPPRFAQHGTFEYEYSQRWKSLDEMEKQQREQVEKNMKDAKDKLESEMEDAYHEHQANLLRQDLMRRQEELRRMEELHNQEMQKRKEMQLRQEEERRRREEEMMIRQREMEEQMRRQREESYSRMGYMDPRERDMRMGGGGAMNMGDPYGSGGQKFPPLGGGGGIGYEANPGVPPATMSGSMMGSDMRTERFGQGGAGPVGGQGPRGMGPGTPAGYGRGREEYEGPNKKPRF

reduction of binding against WT KLC1: 50%
Substance: Myc-KLC1 ΔTail (domain or fragment)
